Data: paper PMC9674588, “Molecular recognition of a membrane-anchored HIV-1 pan-neutralizing epitope” (Communications Biology, 2022)
“Also recorded” adds a separate entry of the source. Where no end group is shown, it is not given here.

Legend:
[1] = Infrared spectroscopy (amide I) of peptides reconstituted in lipid bilayers; type: physicochemical; conditions: for IR amide-I band area, 1630 cm^−1 (solvated helices) / IR amide-I band area, 1642 cm^−1 (helix-helix interactions/disordered) / IR amide-I band area, 1655 cm^−1 (α-helix) / IR amide-I band area, 1670 cm^−1 (turns): monounsaturated PC, D2O PBS
Source text: In addition, the lipid bilayer distance covered by the hydrocarbon acyl chains strongly conditions the favorable interactions between TMDs and lipids, so that a mismatch between this distance and the TMD length can give rise to alterations in the structure and function of the integral membrane proteins. Therefore, to rule out DC effects on the conformations adopted by the reconstituted MPER-TMD peptides, we performed IR experiments and varied systematically this parameter utilizing a complete series of monounsaturated PCs (i.e., diC14:1PC, diC16:1PC, diC18:1PC, diC20:1PC and diC22:1PC)[55].
Infrared spectra were recorded in a Bruker Tensor 27 spectrometer equipped with a mercury-cadmium-telluride detector using a Peltier-based temperature controller (TempCon, BioTools Inc., Wauconda, IL) with calcium fluoride cells (BioCell, BioTools Inc., Wauconda, IL). Lipid vesicles with the peptides reconstituted were lyophilized and subsequently prepared at 3 mg/mL in D2O buffer (PBS). A 25 μL sample aliquot was deposited on a cell that was sealed with a second cell. Reference windows without peptide were prepared similarly. Typically, 1000 scans were collected for each background and sample, and the spectra were obtained with a nominal resolution of 2 cm^−1. Data treatment and band decomposition of the original amide I have been described elsewhere.

Fab 10E8 [2] = assay: Binding of KK114-Fab 10E8 to single GUVs containing the peptides reconstituted (confocal microscopy); conditions: for Fab 10E8 binding vs TMD length and bilayer thickness (in words): GUVs of diC14:1PC, POPC, diC22:1PC
Protocol: To that end, we quantified antibody binding to single vesicles by confocal microscopy of Giant Unilamellar Vesicles (GUVs) incubated with fluorescently labeled Fab 10E8[36],[47].
Thus, to establish the influence of the bilayer thickness on the accessibility to the 10E8 epitope, we selected lipid bilayers made of diC14:1PC and diC22:1PC, which are respectively thinner and thicker than those made of POPC (C16:0-C18:1PC)[52],[53].
To prepare lipid bilayers containing reconstituted peptide, lipids and MPER-TMD-derived peptides were mixed in organic solvent prior to the production of the liposomes. Briefly, POPC dissolved in chloroform:methanol 1:2 (vol:vol) was mixed with peptide dissolved in HFIP at the desired peptide-to-lipid molar ratio. The mixture was dried under a N2 stream and traces of organic solvents were removed by 1 h vacuum pumping. Subsequently, the dried lipid films were subjected to 2 h of gentle hydration with H2O using a N2 gas bubbler to facilitate further dispersion of the dried lipid-peptide film in PBS aqueous buffer. Next, the multilamellar vesicles were bath sonicated (1 h, 55 °C) and subjected to 15 freeze and thaw cycles to obtain unilamellar vesicles.
For binding experiments, NBD-labeled GUVs were produced following the electro-formation method as previously described[47]. In brief, a total of 2 mM of lipid was dissolved in 200 μL CHCl3:CH3OH with the fluorescent probe NBD-PE (0.5%). When required, peptide dissolved in 10% (v/v) HFIP was included in the organic phase at 1:250 peptide-to-lipid molar ratio. The GUVs were added to a bovine serum albumin (BSA)-blocked microscope chamber that already included 250 nM of 10E8-based Fabs conjugated with the KK114 probe at residue C216HC, and were incubated for 15 min prior to imaging. […] Confocal microscopy images were acquired on an inverted confocal fluorescence microscope (Nikon Eclipse TE-2000, Nikon, Nikon Instruments, Tokyo, Japan). NBD-stained GUVs and Fabs conjugated with the KK114 probe were excited at 476 nm and 637 nm, respectively. […] The band pass filters used were 515/30 and Long Pass 650 nm. […]

[3] = Vesicle flotation (incorporation of reconstituted peptides into membranes); type: physicochemical; conditions: POPC, 1:50 mol:mol, flotation in sucrose gradient, Western blot
Source text: Supplementary Figure 4: Incorporation of reconstituted peptides into membranes. (a) Diagram illustrating the Liposome flotation method. Liposome-peptide co mplex es were subjected to ultracentrifugation in a sucrose gradi ent after the reconstitution process. (b) The pres ence of th e peptides in the floated and non- floated fractions o f the gradient and in the original sample (input) as reveal ed b y Western Blot anal ysis aft er Tris -Tricine SDS-PAGE separation. Line plots below […]
liposomes. The peptide-to-lipid ratio was 1:50 (mol:mol).
(1 picture or pasted object on this page, not shown here)

[4] = Breakthrough force of POPC SPBs (FS-AFM); conditions: peptide-to-lipid 1:50
Source text: Permeabilization of single vesicles correlated with effects of the reconstituted peptides on the nanomechanical stability of SPBs analyzed by FS-AFM[57] (Fig. 6b). In this approach, we measured the breakthrough forces of the different SPBs to quantitatively determine the nanomechanical resistance to membrane rupture. By comparing the AFM tip indentations through the different bilayer systems at the same approach speed, we measured the discontinuity in the approach curve which corresponds to the breakthrough force; a parameter widely used to assign the mechanical stability of SPBs[57]. […] This increase was even larger than that observed in an SPB containing 50 mol % cholesterol, which was added as a stiffening-control sample to the analysis. […]
SPBs were produced by the vesicle adsorption method and their topography analyzed using a Nanowizard III AFM (JPK Instruments) under contact mode. […]
Force spectroscopy data for SPB breakthrough measurements were collected using SNL10 Si3N4 cantilever (Bruker, Santa Barbara, CA, USA) with a nominal spring constant of 0.35 N/m, at a speed of 1 µm/s and applying 10 nN of maximum force. Discontinuities in the force versus separation approach curve were determined for each of the indentation curves as reproducible jumps within the extended traces using JPK data processing software.

Fab 10E8 [5] = assay: AFM single-molecule force spectroscopy of Fab 10E8-peptide unbinding in POPC SPBs; type: binding; conditions: for MPRF (most probable rupture force), mean: 1:50
Protocol: SPBs were produced by the vesicle adsorption method and their topography analyzed using a Nanowizard III AFM (JPK Instruments) under contact mode. Briefly, approximately 30 µl of the vesicle suspensions described above were deposited onto freshy cleaved mica disks (area 15 mm^2) preincubated with 30 µl of 150 mM KCl, 10 mM Tris, pH = 7.4 (measurement buffer) and incubated for 30 min at room temperature, leading to the formation of SPBs. The samples were carefully rinsed with measurement buffer before the AFM experiment and always kept under aqueous environment. BL-AC40-C2 Si3N4 cantilevers (Olympus, Japan) with a nominal spring constant of 0.09 N/m were used for bilayer imaging with 0.5 nN of force applied.
For single molecule force spectroscopy, MLCT-BIO probes (Bruker, Santa Barbara, CA USA) were functionalized with Fab 10E8 using well established protocols. To that end, cantilevers were first rinsed with acetone and water, exposed to UV-ozone and coated with 3-Aminopropyldimethylethoxysilane (APDMES). They were then incubated with glutaraldehyde and finally with Fab. Finally, to passivate possible unreacted aldehyde moieties, cantilevers were incubated in 0.1% Bovine Serum Albumin (BSA) for 1 h at room temperature and rinsed in measurement buffer prior to use. Force maps were recorded using a maximum applied force of 0.2 nN, a varying contact time of 0.5, 1, 2 and 5 s and varying retraction speeds of 0.1 µm/s, 2 µm/s and 10 µm/s. Data were analyzed with the data processing software from JPK Instruments (Berlin, Germany).
To determine the MPRF at a given loading rate the frequency histograms of the measured forces were fitted to a Gaussian distribution (Eq. 1) and its maximum calculated.1 y=Amplitude⋅exp−0.5⋅x−Mean/SD^2
MPRF is a function of the loading rate as defined by (Eq. 2):2 MPRF=kβ⋅T/χβlnrf⋅χβ/koff⋅kβ⋅T where kβ is Boltzmann constant, T is the temperature, koff is the natural dissociation rate at zero force and rf is the loading rate.
These parameters can be actually obtained from the slope of the linear fit of the data, and by linearly extrapolating the experimental data to zero external force, respectively.

[6] = GUV permeabilization (soluble KK114 entry); conditions: POPC GUVs with peptide reconstituted
Protocol: When required, peptide dissolved in 10% (v/v) HFIP was included in the organic phase at 1:250 peptide-to-lipid molar ratio. […] For GUV permeabilization assays, GUVs were added to a BSA-blocked microscope chamber that already included the unconjugated and soluble KK114 dye, and were incubated for 15 min prior to imaging. Confocal microscopy images were acquired on an inverted confocal fluorescence microscope (Nikon Eclipse TE-2000, Nikon, Nikon Instruments, Tokyo, Japan). […] The band pass filters used were 515/30 and Long Pass 650 nm. The objective used was a 63X oleo immersion with a numerical aperture (NA) of 1.2.

[7] = hydrocarbon thickness DC 22.8 Å
[8] = reconstituted in POPC bilayers, 1:50

Row | Substance | IR amide-I band area, 1630 cm^−1 (solvated helices) ([1]; DC 25.6 Å) [%] | IR amide-I band area, 1642 cm^−1 (helix-helix interactions/disordered) ([1]; DC 25.6 Å) [%] | IR amide-I band area, 1655 cm^−1 (α-helix) ([1]; DC 25.6 Å) [%] | IR amide-I band area, 1670 cm^−1 (turns) ([1]; DC 25.6 Å) [%] | IR amide-I band area, 1630 cm^−1 (solvated helices) ([1]; DC 29 Å) [%] | IR amide-I band area, 1642 cm^−1 (helix-helix interactions/disordered) ([1]; DC 29 Å) [%] | IR amide-I band area, 1655 cm^−1 (α-helix) ([1]; DC 29 Å) [%] | IR amide-I band area, 1670 cm^−1 (turns) ([1]; DC 29 Å) [%] | IR amide-I band area, 1630 cm^−1 (solvated helices) ([1]; DC 32 Å) [%] | IR amide-I band area, 1642 cm^−1 (helix-helix interactions/disordered) ([1]; DC 32 Å) [%] | IR amide-I band area, 1655 cm^−1 (α-helix) ([1]; DC 32 Å) [%] | IR amide-I band area, 1670 cm^−1 (turns) ([1]; DC 32 Å) [%] | IR amide-I band area, 1630 cm^−1 (solvated helices) ([1]; DC 35 Å) [%] | IR amide-I band area, 1642 cm^−1 (helix-helix interactions/disordered) ([1]; DC 35 Å) [%] | IR amide-I band area, 1655 cm^−1 (α-helix) ([1]; DC 35 Å) [%] | IR amide-I band area, 1670 cm^−1 (turns) ([1]; DC 35 Å) [%] | IR amide-I band area, 1630 cm^−1 (solvated helices) [1, 7] [%] | IR amide-I band area, 1642 cm^−1 (helix-helix interactions/disordered) [1, 7] [%] | IR amide-I band area, 1655 cm^−1 (α-helix) [1, 7] [%] | IR amide-I band area, 1670 cm^−1 (turns) [1, 7] [%] | also measured
1 | C-MPER-TMD700: Env residues 671–700, HXB2 numbering, containing a minimal TMD anchor and Lys-tags added at both ends (NWFNITNWLWYIKLFIMIVGGLVGLRIVFA; also: Lys-tags added at both ends, length not given here; UniProt P04578 671-700, looked up, fragment) | 8.1 | 31.2 | 52.3 | 7 | 8.4 | 39.3 | 48.1 | 2.6 | 6.4 | 39.8 | 49.8 | 3.9 | 3.1 | 52 | 39.7 | 1 | 5.8 | 35.1 | 51.8 | 7.4 | Fab 10E8 binding vs TMD length and bilayer thickness (in words) (Fab 10E8 [2]): C-MPER-TMDLLA-709 > C-MPER-TMD709 > C-MPER-TMD700
2 | C-MPER-TMD709: Env residues 671–709, HXB2 numbering, which included the nominal Env TMD sequence (Env residues 684–709) (NWFNITNWLWYIKLFIMIVGGLVGLRIVFAVLSIVNRVR; UniProt P04578 671-709, looked up, fragment) | 18.9 | 31 | 41.6 | 4.9 | 14 | 33.4 | 45.2 | 4.6 | 16 | 34.8 | 43.2 | 3.4 | 15.8 | 40 | 38.5 | 2.9 | 20 | 34.5 | 33.8 | 6.4 | incorporation into membranes (in words) [3]: total incorporation; breakthrough force (in words) [4]: increased the values of the forces at which rupture was observed; IR amide-I absorption maximum [1, 8]: around 1650 cm^−1; IR amide-I band component [1, 8]: 1642 cm⁻¹; Fab 10E8 binding vs TMD length and bilayer thickness (in words) (Fab 10E8 [2]): C-MPER-TMDLLA-709 > C-MPER-TMD709 > C-MPER-TMD700; Fab 10E8 binding to GUVs (in words) (Fab 10E8 [2]; POPC GUVs, peptide-to-lipid 1:250, 250 nM Fab): appeared to bind more efficiently to C-MPER-TMD709-containing vesicles than to the N/C-MPER683-containing ones; koff ratio among peptides (Fab 10E8 [5]; N/C-MPER683 vs C-MPER-TMD709, POPC SPBs): ≈ 22; attachment (binding) frequency (in words) (Fab 10E8 [5]; POPC SPBs, vs N/C-MPER683, contact time series, retraction 2 μm s^−1): attachment appeared to occur at higher frequency; MPRF (in words) (Fab 10E8 [5]; POPC SPBs, contact time 0.5 s, loading rate 41 nN s^−1, vs N/C-MPER683): clearly shifted to higher values; t0.5(N/C-MPER)/t0.5(C-MPER-TMD) (Fab 10E8 [5]; interaction time for half maximal probability of binding, POPC SPBs): ≈ 1.4; MPRF (most probable rupture force), mean (Fab 10E8 [5]; ln (loading rate pN/s) 3.62033, POPC SPBs): 33.4766 pN; MPRF (most probable rupture force), mean (Fab 10E8 [5]; ln (loading rate pN/s) 4.62006, POPC SPBs): 53.13 pN; MPRF (most probable rupture force), mean (Fab 10E8 [5]; ln (loading rate pN/s) 6.62009, POPC SPBs): 93.3506 pN; MPRF (most probable rupture force), mean (Fab 10E8 [5]; ln (loading rate pN/s) 7.62012, POPC SPBs): 73.97 pN; MPRF (most probable rupture force), mean (Fab 10E8 [5]; ln (loading rate pN/s) 8.62012, POPC SPBs): 81.12 pN; MPRF (most probable rupture force), mean (Fab 10E8 [5]; ln (loading rate pN/s) 9.62012, POPC SPBs): 90.66 pN; MPRF (most probable rupture force), mean (Fab 10E8 [5]; ln (loading rate pN/s) 10.6201, POPC SPBs): 135 pN; permeabilization (in words) [6]: viewed as empty spheres; also recorded: essentially impermeable
